{"source": "patent US20230151095A1", "about": "(published 2023)", "key": {"XENP38100 (1D2B4) [1]": {"molecular_target": "XENP38100 (1D2B4)", "experiment": "Octet"}, "NKG2D": {"molecular_target": "T1, NKG2D (human, UniProt P26718 78-216)", "T1 chain": "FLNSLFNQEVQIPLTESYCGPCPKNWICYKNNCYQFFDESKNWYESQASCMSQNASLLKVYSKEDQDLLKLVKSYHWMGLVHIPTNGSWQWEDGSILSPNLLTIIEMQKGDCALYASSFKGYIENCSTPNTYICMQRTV"}, "XENP38100 (1D2B4) [2]": {"molecular_target": "XENP38100 (1D2B4)", "experiment": "Octet", "remark": "listed apart in the source"}}, "note": "Read-outs that look alike come from different tables or passages of the source."}
{"binder": "cynomolgus NKG2D (receptor) FLNSLFNQEVQIPLTESYCGPCPKNWICYKNNCYQFFNESKNWYESQASCMSQNASLLKVYSKEDQDLLKLVKSYHWMGLVHIPTNGSWQWEDGSILSPNLLTIIEMQKGDCALYASSFKGYIENCSIPNTYICMQRTV", "values": [{"measurement": "Kd", "setting": "XENP38100 (1D2B4) [1]", "value": 5.05, "unit": "nM"}]}
{"binder": "XENP40376 B7H3 Fab x NKG2D scFv (1+1) (antibody) chain 1: EVQLLESGGGLVQPGGSLRLSCAVSGFSLSSYGVIWVRQAPGKGLEYVSWVSSGGSTNYASSVKGRFTISRDTSKNTVYLQMNSLRAEDTAVYFCARGATNSGTDIWGPGTLVTVSSASTKGPSVFPLAPSSKSTSGGTAALGCLVKDYFPEPVTVSWNSGALTSGVHTFPAVLQSSGLYSLSSVVTVPSSSLGTQTYICNVNHKPSDTKVDKKVEPKSCDKTHTCPPCPAPPVAGPSVFLFPPKPKDTLMISRTPEVTCVVVDVKHEDPEVKFNWYVDGVEVHNAKTKPREEEYNSTYRVVSVLTVLHQDWLNGKEYKCKVSNKALPAPIEKTISKAKGQPREPQVYTLPPSREEMTKNQVSLTCDVSGFYPSDIAVEWESDGQPENNYKTTPPVLDSDGSFFLYSKLTVDKSRWEQGDVFSCSVMHEALHNHYTQKSLSLSPGK chain 2: not shown chain 3: DIVMTQSPSSLSASVGDRVTITCRASQSINSWLSWYQQKPGKPPKLLIYGASNLASGVPSRFKGSGSGTDFTLTISSLQPEDFATYYCQNNYGIIAAGATFGGGTKVEIKRTVAAPSVFIFPPSDEQLKSGTASVVCLLNNFYPREAKVQWKVDNALQSGNSQESVTEQDSKDSTYSLSSTLTLSKADYEKHKVYACEVTHQGLSSPVTKSFNRGEC", "values": [{"measurement": "Kd", "setting": "NKG2D", "value": 7.72, "unit": "nM"}]}
{"binder": "human NKG2D (Fc fusion) FLNSLFNQEVQIPLTESYCGPCPKNWICYKNNCYQFFDESKNWYESQASCMSQNASLLKVYSKEDQDLLKLVKSYHWMGLVHIPTNGSWQWEDGSILSPNLLTIIEMQKGDCALYASSFKGYIENCSTPNTYICMQRTV", "values": [{"measurement": "Kd", "setting": "XENP38100 (1D2B4) [2]", "value": 10.4, "unit": "nM"}]}
